Target: T1, JARID2 (aa 1-450) (human, UniProt Q92833 1-450, K116me3 (trimethyl-lysine at 116))
T1 sequence: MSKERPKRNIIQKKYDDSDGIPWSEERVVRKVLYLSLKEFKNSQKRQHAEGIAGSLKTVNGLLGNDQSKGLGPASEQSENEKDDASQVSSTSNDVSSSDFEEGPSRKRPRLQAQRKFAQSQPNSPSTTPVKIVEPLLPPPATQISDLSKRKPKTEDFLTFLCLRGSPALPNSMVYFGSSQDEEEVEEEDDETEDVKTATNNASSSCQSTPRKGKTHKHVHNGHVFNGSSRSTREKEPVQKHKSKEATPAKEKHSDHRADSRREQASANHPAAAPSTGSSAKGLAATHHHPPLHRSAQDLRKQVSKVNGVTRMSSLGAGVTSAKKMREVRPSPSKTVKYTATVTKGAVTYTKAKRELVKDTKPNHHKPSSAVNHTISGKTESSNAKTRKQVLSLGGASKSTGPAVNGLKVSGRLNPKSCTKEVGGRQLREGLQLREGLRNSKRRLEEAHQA
Experiment: cryo-EM structure

binding result: binds
B1: EED (aa 80-441) (domain or fragment)
chain: not shown
